# Measured values published in patent publication US9395368B2, “Methods, agents and peptides for inducing an immune response to matrix metalloproteinase-2 expressing tumors” (New York University, priority 2010, dated 2016).
# B1: heat-inactivated MMP-2: MMP-2 enzyme inactivated by heating to 56° C. for 45 min (protein, UniProt P08253 110-660, looked up)
# 72 kDa type IV collagenase: YNFFPRKPKWDKNQITYRIIGYTPDLDPETVDDAFARAFQVWSDVTPLRFSRIHDGEADIMINFGRWEHGDGYPFDGKDGLLAHAFAPGTGVGGDSHFDDDELWTLGEGQVVRVKYGNADGEYCKFPFLFNGKEYNSCTDTGRSDGFLWCSTTYNFEKDGKYGFCPHEALFTMGGNAEGQPCKFPFRFQGTSYDSCTTEGRTDGYRWCGTTEDYDRDKKYGFCPETAMSTVGGNSEGAPCVFPFTFLGNKYESCTSAGRSDGKMWCATTANYDDDRKWGFCPDQGYSLFLVAAHEFGHAMGLEHSQDPGALMAPIYTYTKNFRLSQDDIKGIQELYGASPDIDLGTGPTPTLGPVTPEICKQDIVFDGIAQIRGEIFFFKDRFIWRTVTPRDKPMGPLLVATFWPELPEKIDAVYEAPQEEKAVFFAGNEYWIYSASTLERGYPKPLTSLGLPPDVQRVDAAFNWSKNKKTYIFAGDKFWRYNEVKKKMDPGFPKLIADAWNAIPDNLDAVVDLQGGGHSYFFKGAYYLKLENQSLKSVKFGSIKSDWLGC
# modifications: heat-inactivated
# B2: MMP-2+I: MMP-2 enzyme inactivated by addition of the MMP-2 inhibitor III at 100 nM for 20 min (protein, UniProt P08253 110-660, looked up)
# 72 kDa type IV collagenase: YNFFPRKPKWDKNQITYRIIGYTPDLDPETVDDAFARAFQVWSDVTPLRFSRIHDGEADIMINFGRWEHGDGYPFDGKDGLLAHAFAPGTGVGGDSHFDDDELWTLGEGQVVRVKYGNADGEYCKFPFLFNGKEYNSCTDTGRSDGFLWCSTTYNFEKDGKYGFCPHEALFTMGGNAEGQPCKFPFRFQGTSYDSCTTEGRTDGYRWCGTTEDYDRDKKYGFCPETAMSTVGGNSEGAPCVFPFTFLGNKYESCTSAGRSDGKMWCATTANYDDDRKWGFCPDQGYSLFLVAAHEFGHAMGLEHSQDPGALMAPIYTYTKNFRLSQDDIKGIQELYGASPDIDLGTGPTPTLGPVTPEICKQDIVFDGIAQIRGEIFFFKDRFIWRTVTPRDKPMGPLLVATFWPELPEKIDAVYEAPQEEKAVFFAGNEYWIYSASTLERGYPKPLTSLGLPPDVQRVDAAFNWSKNKKTYIFAGDKFWRYNEVKKKMDPGFPKLIADAWNAIPDNLDAVVDLQGGGHSYFFKGAYYLKLENQSLKSVKFGSIKSDWLGC
# modifications: with MMP-2 inhibitor III
# B3: rhIL-12: recombinant human IL-12 from R&D Systems (protein)
# chain 1: RNLPVATPDPGMFPCLHHSQNLLRAVSNMLQKARQTLEFYPCTSEEIDHEDITKDKTSTVEACLPLELTKNESCLNSRETSFITNGSCLASRKTSFMMALCLSSIYEDLKMYQVEFKTMNAKLLMDPKRQIFLDQNMLAVIDELMQALNFNSETVPQKSSLEEPDFYKTKIKLCILLHAFRIRAVTIDRVMSYLNAS
# chain 2: IWELKKDVYVVELDWYPDAPGEMVVLTCDTPEEDGITWTLDQSSEVLGSGKTLTIQVKEFGDAGQYTCHKGGEVLSHSLLLLHKKEDGIWSTDILKDQKEPKNKTFLRCEAKNYSGRFTCWWLTTISTDLTFSVKSSRGSSDPQGVTCGAATLSAERVRGDNKEYEYSVECQEDSACPAAEESLPIEVMVDAVHKLKYENYTSSFFIRDIIKPDPPKNLQLKPLKNSRQVEVSWEYPDTWSTPHSYFSLTFCVQVQGKSKREKKDRVFTDKTSATVICRKNASISVRAQDRYYSSSWSEWASVPCS
# How the values were obtained:
# Type in all cases: cell-based, human
# [1] = tested on: Cord blood-derived CD4+/CD25- cells; experiment: Priming of naive cord blood CD4+ T cells with autologous CD4- cells loaded with different sources of MMP-2; details: for percentage of MMP-2-specific CD4+ T cells secreting IL-4, mean: 11 cord blood donors, 15 days after priming, after background subtraction; for mean of the individual differences in IL-4 secreting cells versus priming with active MMP-2: paired within donors
# Method: Cord blood-derived CD4^+/CD25^− cells from 11 donors were stimulated with irradiated autologous CD4^− cells loaded either with active MMP-2, heat-inactivated (HI) MMP-2 or with MMP-2 pre-incubated with a specific inhibitor (+I). After 15 days, CD4^+ T cells were stimulated with the MMP-2 peptide pool (2 μM) for 6 h before intracellular staining of cytokines. (A) Density plots representing cytokine production by CD4^+ T cells are shown for the representative donor CB35 primed to MMP-2 either in its active form or after heat-inactivation. Numbers indicate percentages of cytokine-producing cells upon MMP-2 peptide stimulation. […] MMP-2 enzymatic activity was controlled (FIG. 13C-D). For each cytokine, 3 paired t-tests were used to compare active MMP-2 to heat inactivated MMP-2, to MMP-2+I, and to MMP-2 peptides. P values≦0.0167 (*) were considered statistically significant using a Bonferroni correction for 3 comparisons.
# (§1) T Cell culture, stimulation and priming. Peripheral blood mononuclear cells (PBMCs) were purified from healthy donor-(HD) or cord blood donor-(CB) derived buffy coats (New York Blood Center) by Ficoll-Paque Plus (GE Healthcare) centrifugation. CD4^+/CD25^− cells were enriched (>90%) by magnetic cell sorting (Miltenyi Biotec) and primed/stimulated for 12-15 days either with irradiated (35Gy) autologous CD4^− cells or with autologous mature DCs in IMDM (GIBCO) supplemented with 1 mM HEPES (Life Technologies), 2 mM L-glutamine (Sigma), streptomycin (100 UI/mL)/penicillin (100 μg/mL) (Sigma) and 5% heat inactivated pooled human serum (PHS; Valley Biomedical) in the presence of rhIL-2 (10 UI/mL) and IL7 (5 ng/mL) (R&D Systems). Antigen presenting cells (CD4^− cells or DCs) were loaded either with peptides (2 μM) or with the MMP-2 protein (10 μg/mL) for 2 and 5 h, respectively. DCs were matured using the TLR3 agonist poly(I:C) at 5 μg/mL/10^6 DCs (Amersham). To generate T cell clones, we originally relied on our published methodology (Godefroy et al., 2006; Godefroy et al., 2007; the entire contents of each of which is incorporated herein by reference), involving enrichment of IFNγ-secreting cells upon short-term culture and peptide stimulation to generate MMP-2 responsive clones. Briefly, CD4^+ T cells were stimulated by CD4^− cells irradiated and pulsed with peptides for 12 days in the presence of rhIL-2 and rhIL-7. CD4^+ T cells were then restimulated with peptides for 3 hours before capturing IFNγ-secreting specific cells using a bispecific antibody coating T cells and capturing produced IFNγ. Positive cells were purified magnetically before being cloned. Although MMP-2-specific cells could be isolated, it was realized that IFNγ secretion was marginal compared to their secretion of IL-4 and TNFα. IFNγ-secreting cells in response to MMP-2 peptide pool were enriched by cytokine-guided magnetic cell sorting (Miltenyi Biotec) as described above and cloned the following day by limiting dilution in the presence of irradiated allogeneic PBMCs, 1 μg/mL phytohemagglutinin-L (Sigma) and 150 UI/mL rhIL-2. Tumor infiltrating lymphocytes (TILs) were provided by Pr. F. Jotereau and B. Dréno. They were obtained from tumor-invaded lymph nodes of melanoma patients (stage Mb) and expanded ex vivo. These patients received autologous TILs and IL-2 infusions in a clinical trial (Labarriere et al., 2002). This protocol was approved by the Institutional Ethics Committee and registered with regulatory state authority in France (Nantes).
# Intracellular staining T-bet and GATA-3 expression was measured on resting T cells. Cells were fixed (4% paraformaldehyde for 10 min at RT), permeabilized with 0.1% saponin, and stained for intracellular transcription factors. Cytokine production by T cells was also assessed by intracellular staining T cells were stimulated with 2 μM overlapping peptides. After 1 h, 10 μg/mL brefeldin A was added to the cells. […]
# [2] = tested on: Cord blood-derived CD4+/CD25- cells; experiment: Priming of naive CD4+ T cells to Melan-A/MART-1 or NY-ESO-1 with DCs pre-incubated with MMP-2
# Method: (A) Cord blood-derived CD4^+/CD25^− cells were stimulated with autologous poly(I:C)-matured DCs pulsed with overlapping peptides spanning either Melan-A/MART-1 or NY-ESO-1. Prior to poly(I:C) addition, DCs were incubated with or without MMP-2 (active or heat-inactivated) for 1 h. MMP-2 enzymatic activity was controlled (FIG. 13C-D). After 15 days, CD4^+ T cells were stimulated with the Melan-A/MART-1 or NY-ESO-1 peptide pools (2 μM) for 6 h before intracellular staining of cytokines. Percentages of antigen-specific CD4^+ T cells, secreting indicated cytokines, are represented for all donors. (B) Contour plots showing percentages of cytokine-producing CD4^+ T cells are shown for representative donor CB45 primed to Melan-A/MART-1. Percentage of secreting cells upon peptide stimulation was considered specific/positive when it exceeded by more than twofold the background (cytokine-secreting cells in the absence of stimulation) and had more than 0.5% of responding cells (after background subtraction) for at least one cytokine. For each cytokine, 2 paired t-tests were used to compare priming in the presence of active MMP-2 to either priming in the absence of active MMP-2 or with HI MMP-2. The Bonferroni adjustment was used for multiple comparisons. P values≦0.025 (*) were considered statistically significant using a Bonferroni correction for 2 comparisons.
# as §1, with “(Nantes). […]” for “(Nantes).”
# [3] = tested on: Cord blood-derived CD4+/CD25- cells; experiment: Priming of naive CD4+ T cells with active MMP-2-loaded DCs with rhIL-12 or blocking mAb for OX40L or IL-4
# Method: […] CD4^+ T cells were then stimulated with the MMP-2 peptide pool (2 μM) for 6 h before intracellular staining of cytokines. Contour plots representing cytokine production by CD4^+ T cells are shown for donor CB31 CD4^+ T cells primed to MMP-2 alone, or together with rhIL-12, anti-OX40L mAb or anti-IL-4 mAb. (B) Percentages of MMP-2-specific CD4^+ T cells, secreting indicated cytokines, are represented for all donors. For each cytokine, 5 paired t-tests were used to compare “no conditioning” versus various conditions. P values≦0.01 (*) were considered statistically significant using a Bonferroni correction for 5 comparisons.
# as §1, with “IFNγ-secreting cells in response to MMP-2 peptide pool were enriched by cytokine-guided magnetic cell sorting (Miltenyi Biotec) as described above and cloned the following day by limiting dilution in the presence of irradiated allogeneic PBMCs, 1 μg/mL phytohemagglutinin-L (Sigma) and 150 UI/mL rhIL-2. Tumor infiltrating lymphocytes (TILs) were provided by Pr. F. Jotereau and B. Dréno. They were obtained from tumor-invaded lymph nodes of melanoma patients (stage Mb) and expanded ex vivo. These patients received autologous TILs and IL-2 infusions in a clinical trial (Labarriere et al., 2002). This protocol was approved by the Institutional Ethics Committee and registered with regulatory state authority in France (Nantes).” left out
# Intracellular staining T-bet and GATA-3 expression was measured on resting T cells. […] Cytokine production by T cells was also assessed by intracellular staining T cells were stimulated with 2 μM overlapping peptides. […]
# [4] = rhIL-12 10 ng/mL or mAb 10 μg/mL throughout priming
Molecule,"percentage of MMP-2-specific CD4+ T cells secreting IL-4, mean [1] [%]",mean of the individual differences in IL-4 secreting cells versus priming with active MMP-2 [1],"IFNγ, mean of differences relative to priming in the presence of active MMP-2 [2]","IL-2, mean of differences relative to priming in the presence of active MMP-2 [2]","IL-4, mean of differences relative to priming in the presence of active MMP-2 [2]",IFNγ-secreting cells ([3]; doses as low as 1 ng/mL),percentages of IL4-secreting T cells ([3]; doses as low as 1 ng/mL),"IFNγ secretion by primed MMP-2-specific CD4+ T cells versus no conditioning [3, 4]","IL-4 secretion by primed MMP-2-specific CD4+ T cells versus no conditioning [3, 4]"
B1,0.45,1.80,0.21,0.11,1.92,–,–,–,–
B2,0.12,1.47,–,–,–,–,–,–,–
B3,–,–,–,–,–,more,lower percentages,more,less
